Experiment in all cases: purified protein
Holding throughout (format): biochemical, Thalictrum flavum

For series [1], the system named is CCCCCC=O. The note with it: 2.5 mM dopamine (nonsaturating), 50 mM Hepes, 37 °C.
Series [2] relates to NCCc1ccc(O)c(O)c1. Particulars: 2.5 mM 4-HPAA (nonsaturating), 50 mM Hepes, 37 °C.
Series [3] concerns O=CCc1ccc(O)cc1. The note with it: 2.5 mM dopamine (nonsaturating), 50 mM Hepes, 37 °C.
Series [4] relates to CC(C)=CCC[C@@H](C)CC=O. Particulars: 2.5 mM dopamine (nonsaturating), 50 mM Hepes, 37 °C.
For series [5], the system named is CC(C)=CCC[C@H](C)CC=O. Particulars: 2.5 mM dopamine (nonsaturating), 50 mM Hepes, 37 °C.

The source of these data is PMC4413047, “‘Dopamine-first’ mechanism enables the rational engineering of the norcoclaurine synthase aldehyde activity profile” (The Febs Journal, 2015).

One may read the Km as the concentration of substrate that gives half-maximal velocity. For orientation: Vmax means the top rate of the reaction or transport when substrate is in excess. The term kcat denotes the number of substrate molecules converted per active site and unit of time at saturation. One may read the kcat/Km as the turnover number divided by the Michaelis constant. With “TfNCS (Δ29TfNCS) (Thalictrum flavum subsp. glaucum)”, the Km in series [1] amounted to 13.4 ± 1.8 mM; in series [2], 22.2 ± 1.5 mM; in series [3] it was 18.1 ± 1.4 mM; in series [4], 0.53 ± 0.14 mM; in series [5], 0.38 ± 0.10 mM. Moreover, the Vmax was 12.3 µmol/min/mg in series [1]; 69 µmol/min/mg in series [2]; 53.6 µmol/min/mg in series [3]; 1.07 µmol/min/mg in series [4]; 1.32 µmol/min/mg in series [5]. Further, the kcat in series [1] came out at 4.3 ± 0.3 s⁻¹; in series [2], 24 ± 1 s⁻¹; in series [3] it was 18.7 ± 0.9 s⁻¹; in series [4] it was 0.37 ± 0.03 s⁻¹; in series [5] it was 0.46 ± 0.02 s⁻¹. The catalytic efficiency (kcat/Km) in series [1] amounted to 320 ± 50 M⁻¹ s⁻¹; in series [2] it was 1090 ± 80 M⁻¹ s⁻¹; in series [3], 1030 ± 90 M⁻¹ s⁻¹; in series [4], 710 ± 200 M⁻¹ s⁻¹; in series [5], 1200 ± 310 M⁻¹ s⁻¹.
Regarding “TfNCS (Δ29TfNCS) (Thalictrum flavum subsp. glaucum; L76A)”, the Km is reported as 13.4 ± 0.8 mM in series [1]; 16.8 ± 1.0 mM in series [2]; 17.4 ± 1.0 mM in series [3]; 0.49 ± 0.11 mM in series [4]; 0.59 ± 0.09 mM in series [5]. In addition, the Vmax in series [1] came to 9 µmol/min/mg; in series [2], 38.9 µmol/min/mg; in series [3] it was 40.9 µmol/min/mg; in series [4] it was 1.58 µmol/min/mg; in series [5], 2.7 µmol/min/mg. Besides, the kcat in series [1] was found to be 3.2 ± 0.1 s⁻¹; in series [2], 13.6 ± 0.5 s⁻¹; in series [3], 14.3 ± 0.5 s⁻¹; in series [4] it was 0.55 ± 0.03 s⁻¹; in series [5], 0.93 ± 0.05 s⁻¹. Further, the kcat/Km in series [1] came out at 240 ± 20 M⁻¹ s⁻¹; in series [2], 810 ± 60 M⁻¹ s⁻¹; in series [3], 820 ± 50 M⁻¹ s⁻¹; in series [4] it was 1130 ± 270 M⁻¹ s⁻¹; in series [5], 1570 ± 250 M⁻¹ s⁻¹.
Regarding “TfNCS (Δ29TfNCS) (Thalictrum flavum subsp. glaucum; Y108F)”, in series [1], the Km came to 7.6 ± 0.9 mM, the Vmax amounted to 7.14 µmol/min/mg, the turnover number (kcat) was 2.5 ± 0.1 s⁻¹ and the kcat/Km was 330 ± 40 M⁻¹ s⁻¹. Further, in series [2], the Km is reported as 13.3 ± 0.7 mM, the Vmax is 29.1 µmol/min/mg, the kcat was found to be 10.2 ± 0.3 s⁻¹ and the kcat/Km is 760 ± 50 M⁻¹ s⁻¹.
